The target in assay [1] is Tyrosine phosphatase Sts1 (UniProt Q8BGG7). The assay can be described thus: co-immunoprecipitation (anti-Bcr-Abl/Abl IP, Sts1 immunoblot, quantified). Particulars: BaF3 cells stably transduced with the Bcr-Abl variants; parent: est. 1.0; read off a plot. (In general: A western blot detects proteins with antibodies after separation by electrophoresis.)
Assay [2] concerns the target Bcr-Abl DH domain (residues 487–702) (UniProt P11274). The assay can be described thus: NMR titration; GTPase titrated to 50 μM 15N-labeled DH domain; 50 mM HEPES pH 7, 50 mM NaCl, 1 mM DTT, 1 mM imidazole, 2 mM EDTA; [15N,1H]-TROSY; about 10 peaks fitted to a 1:1 binding model, mean Kd.

Chain of Tyrosine phosphatase Sts1 (Q8BGG7 whole entry, the tested form may be a part): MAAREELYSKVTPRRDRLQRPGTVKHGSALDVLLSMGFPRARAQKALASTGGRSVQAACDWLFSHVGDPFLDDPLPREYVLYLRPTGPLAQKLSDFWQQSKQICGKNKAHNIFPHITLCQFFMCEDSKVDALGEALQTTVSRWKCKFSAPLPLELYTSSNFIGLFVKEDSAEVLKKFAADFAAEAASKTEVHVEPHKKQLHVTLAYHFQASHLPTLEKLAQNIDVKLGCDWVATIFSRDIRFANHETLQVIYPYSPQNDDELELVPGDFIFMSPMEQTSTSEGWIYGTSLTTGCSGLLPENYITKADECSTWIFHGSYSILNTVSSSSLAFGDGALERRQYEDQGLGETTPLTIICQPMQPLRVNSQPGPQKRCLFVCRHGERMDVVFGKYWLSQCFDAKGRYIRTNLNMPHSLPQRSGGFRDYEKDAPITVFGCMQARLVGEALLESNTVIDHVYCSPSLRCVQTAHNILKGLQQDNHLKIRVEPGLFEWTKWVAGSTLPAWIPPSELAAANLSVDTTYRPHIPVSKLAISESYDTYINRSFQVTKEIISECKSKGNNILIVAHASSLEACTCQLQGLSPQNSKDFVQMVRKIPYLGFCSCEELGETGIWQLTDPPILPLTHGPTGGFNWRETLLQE
Chain of Bcr-Abl DH domain (residues 487–702) (P11274 487-702): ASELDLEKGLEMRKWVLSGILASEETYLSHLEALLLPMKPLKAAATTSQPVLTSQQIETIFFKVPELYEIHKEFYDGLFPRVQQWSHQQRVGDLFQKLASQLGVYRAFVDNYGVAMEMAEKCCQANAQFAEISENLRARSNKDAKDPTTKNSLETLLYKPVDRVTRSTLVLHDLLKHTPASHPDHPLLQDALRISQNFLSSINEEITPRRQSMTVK
Chain of Bcr-Abl p210 (from UniProt P11274) R726A; F1100E (P11274 whole entry, stated change not applied): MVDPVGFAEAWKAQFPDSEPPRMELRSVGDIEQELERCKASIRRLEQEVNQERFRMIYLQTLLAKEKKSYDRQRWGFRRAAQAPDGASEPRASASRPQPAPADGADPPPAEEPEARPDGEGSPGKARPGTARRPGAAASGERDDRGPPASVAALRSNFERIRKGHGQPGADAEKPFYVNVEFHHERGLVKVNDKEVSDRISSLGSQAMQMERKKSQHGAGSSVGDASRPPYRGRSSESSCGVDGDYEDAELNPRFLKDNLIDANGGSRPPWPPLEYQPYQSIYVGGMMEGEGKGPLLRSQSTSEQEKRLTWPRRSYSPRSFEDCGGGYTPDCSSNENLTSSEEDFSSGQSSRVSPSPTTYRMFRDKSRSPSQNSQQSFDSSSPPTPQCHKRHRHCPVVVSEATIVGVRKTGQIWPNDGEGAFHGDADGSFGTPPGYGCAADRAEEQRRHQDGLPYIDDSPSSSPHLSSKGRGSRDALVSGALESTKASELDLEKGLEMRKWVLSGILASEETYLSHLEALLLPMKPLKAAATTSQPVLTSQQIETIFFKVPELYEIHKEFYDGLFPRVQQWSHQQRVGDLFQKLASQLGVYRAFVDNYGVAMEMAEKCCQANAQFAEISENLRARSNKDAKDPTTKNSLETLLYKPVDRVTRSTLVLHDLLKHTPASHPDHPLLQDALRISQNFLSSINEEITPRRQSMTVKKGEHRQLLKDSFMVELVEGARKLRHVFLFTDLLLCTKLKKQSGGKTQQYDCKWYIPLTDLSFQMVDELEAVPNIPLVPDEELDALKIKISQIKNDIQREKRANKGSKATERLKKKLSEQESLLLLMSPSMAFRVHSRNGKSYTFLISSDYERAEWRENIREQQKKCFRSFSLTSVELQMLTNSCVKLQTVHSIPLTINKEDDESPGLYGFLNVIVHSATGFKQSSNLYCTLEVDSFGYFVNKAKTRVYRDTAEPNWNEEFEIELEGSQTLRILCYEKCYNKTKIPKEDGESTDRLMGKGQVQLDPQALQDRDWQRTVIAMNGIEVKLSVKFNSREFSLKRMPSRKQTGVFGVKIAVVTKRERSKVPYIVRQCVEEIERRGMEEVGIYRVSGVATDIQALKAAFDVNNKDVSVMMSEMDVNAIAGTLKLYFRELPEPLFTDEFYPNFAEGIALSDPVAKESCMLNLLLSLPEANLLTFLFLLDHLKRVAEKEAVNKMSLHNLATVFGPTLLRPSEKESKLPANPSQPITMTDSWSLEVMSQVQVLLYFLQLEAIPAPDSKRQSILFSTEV
Chain of Bcr-Abl p210 (from UniProt P11274) F1100E (P11274 whole entry, stated change not applied): as above
Chain of Bcr-Abl p210 (from UniProt P11274) R723A; K724A; F1100E (P11274 whole entry, stated change not applied): as above

With “Bcr-Abl p210 (from UniProt P11274) F1100E”, the ratio to parent in assay [1] is 0.55.

On to “Bcr-Abl p210 (from UniProt P11274) R723A; K724A; F1100E”, for which the ratio to parent in assay [1] came to 0.24.

For “Bcr-Abl p210 (from UniProt P11274) R726A; F1100E”, the ratio to parent in assay [1] was 0.5. Turning to “Cdc42 (from UniProt P60953 1-191) (enzyme)”, in assay [2], the Kd (usually the free concentration of one partner at which half of the binding sites on the other are occupied at equilibrium, for simple one-to-one binding) came to 1900 µM. That is a millimolar value. “RhoA (from UniProt P61586 1-193) (enzyme)” yielded a Kd in assay [2] of 600 µM.

For the origin of these results see paper PMC5727386.
